# Assay results taken from the DeepSol protein solubility set.
# Assay: soluble on expression in E. coli; label from the status in PepcDB or PDB records
row,Sequence,soluble on expression in E. coli
1,MNATPEKADDLIVVGKIFSVHGVRGEVKVYSFTDPIENLLDYPRWTLRHEGKVKQVELVSGRGSQKGLVVKLKGLDDRDEARLLSGYEICIPRSLLPNLAADEYYWYQLVGLKVINQDEQLFGKVDHLLETGANDVMVVKPCAGSLDDRERLLPYTEQCVLAIDLEAGVMRVEWDADFLEHHHHHH,soluble
2,MQKLPHSLFFGPAGCGKTTFARVVAKDFGLDFYEFDGGNFKLEDLRKIIENYKNSLYKPLIFIDEIHRLSKTQQEMLLIPMENYRCIVIGASTENPYFVLSSGIRSRSMLFEFKNLGQKDLELLLERVQQKIAFKIEDNAKEFLLKSFDARAMLNLLEFALVLNEKEITLENLKKLRNGVNSEGVSSKDTHYILASALIKSLRGSDVDAAIYYLARLIDAGESADFIARRLIIFASEDISNADPNALNLAVSTLTAVKNIGYPEARIILSQCAVYLASAPKSNSSYNAINKALDYVKNNPALEIPNYLNNNHPEKKNYLYPHNFGGWVKQNYLSANLKFYESKGIGEEARLLENLSKLKNIKS,soluble
3,SNAMKFSEFRYERPDIAQLQASFQEALDSFRRAGSAALQHEAMKRINELRRRYSTMANLCHIRHTIDTNDEFYKKEQDFFDETEPVVKGLVNDYYRALVSSPFRAELEQVWGKQLFALAETQLKTYAPVIVEDLQKENKLASEYTKLIASAKIMFEGEERTLAQLQPFVESPDRAMRQRASEARFSFFKDYEKELDELYDELVHVRTAIARKLGFQNFVELGYARLGRTDYNADMVAGYRRQVKTHIVPLAAKLRERQRQRIQVEKLYYYDEPFMFPTGNPTPKGDADWIVQNGRQMYEELSPETGEFFRYMVEHELMDLVAKKGKAGGGYCTYIDDYKAPFIFSNFTGTSGDIDVLTHEAGHAFQVYESRHYDIPEYNWPTLEACEIHSMSMEFFTWPWMELFFGEDADKYRFAHLSDALLFLPYGVAVDEFQHAVYENPDMTPAERKSVWRNIEKAYLPTRDYADHDYLERGGFWQRQGHIYTDPFYYIDYTLAQVCAFQFWKRAQEDRASAWRDYVALCRLGGSRPFTELVKSANLQSPFADGAVASVVGHIERWLDSVDDKAL,soluble
4,MGSDKIHHHHHHMFKPNYHFFPITGWMNDPNGLIFWKGKYHMFYQYNPRKPEWGNICWGHAVSDDLVHWRHLPVALYPDDETHGVFSGSAVEKDGKMFLVYTYYRDPTHNKGEKETQCVAMSENGLDFVKYDGNPVISKPPEEGTHAFRDPKVNRSNGEWRMVLGSGKDEKIGRVLLYTSDDLFHWKYEGVIFEDETTKEIECPDLVRIGEKDILIYSITSTNSVLFSMGELKEGKLNVEKRGLLDHGTDFYAAQTFFGTDRVVVIGWLQSWLRTGLYPTKREGWNGVMSLPRELYVENNELKVKPVDELLALRKRKVFETAKSGTFLLDVKENSYEIVCEFSGEIELRMGNESEEVVITKSRDELIVDTTRSGVSGGEVRKSTVEDEATNRIRAFLDSCSVEFFFNDSIAFSFRIHPENVYNILSVKSNQVKLEVFELENIWL,not soluble
5,MTLFEPSTSGNRMGYRGSSNSSSGVGSGGSGSLMTQSIGGPNKHLSASHSTLNTASTHDMMHSKIPKSPSNESLSRSHTSSSGGSQGGHNSNSGSNSGFRPEDAVQTFGAKLVPFEKNEIYNYTRVFFVGSHAKKQAGVIGGANNGGYDDENGSYQLVVHDHIAYRYEVLKVIGKGSFGQVIKAFDHKYQQYVALKLVRNEKRFHRQADEEIRILDHLRRQDSDGTHNIIHMLDYFNFRNHKCITFELLSINLYELIKRNKFQGFSLMLVRKFAYSMLLCLDLLQKNRLIHCDLKPENVLLKQQGRSGIKVIDFGSSCFDDQRIYTYIQSRFYRAPEVILGTKYGMPIDMWSLGCILAELLTGYPLLPGEDENDQLALIIELLGMPPPKSLETAKRARTFITSKGYPRYCTATSMPDGSVVLAGARSKRGKMRGPPASRSWSTALKNMGDELFVDFLKRCLDWDPETRMTPAQALKHKWLRRRLPNPPRDGLESMGGLADHEVCFIIF,not soluble
6,MREGWRDEPAARGGCQCGRVRYSVPAGPKKSTVCHCRMCQRATGNAFAPLLEVPTADVVWEGTPAVWASSSVAERGFCATCGTPLFYRSDETTELMAGTLAGFDFRPIANHGIEGRVGWLGGLAALPDRATRPELLSRVVSHQAPDE,not soluble
7,MTADRTGHCLCGGVQIAVATVSHEIGACHCEMCRRWTGSAFVTMMVPEAAMTVTGAEHVKAYASSAWAERCFCGSCGSTLWYRLTGPGMPRDYYMAAGLLDDLSGIRLAHEIYIDRKPDAWSFAGPTHQMTEAEFLATLPASPEE,not soluble
8,MYLTKEEELALSGEYGPAIQKAMEILVALGDIYNADRLIPIKSAQIAGVSYKNIGDEGIEFLRDFVEAGAKVSVYTTLNPAGIGDEDFMEKQAEIIELYRKMGVEITSTCTPYYGPNLPKYGDHLAWSESSAVIFANSVLGARTNREGGPSSLAAAIVGKTPNYGLHLEENRKATHIIEVKDKLKSRTEYSLLGYKIGEIVENGVPYIRGIAPTTEDLKALGASMAASGGVGLYHVEGSTPEWRGAIVDKIEKIEIGRKDLEDVRQRFSVDWGDVDIILLGCPHASLREIKEIAELLRMRDKPLKIPLFITVSRGIKALADYLGYTEIIERYNGKLLPDVCLVVSPIKEWYSGVATDSGKAAFYLKSFGLKVLLDTTENIIMGAPLEHHHHHH,not soluble
9,MTDTAENQTQNNWQAGHPRSIRSFVLRQSHMTAAQQRAIDTLWDSFGIDYQATPADLDARFGSSRPKILEIGFGMGTATAEIARRLPETDFLAIDVHGPGVGNLLKLIDENHLENIRVMRHDAVEVVENMLQDGSLDGIHIFFPDPWHKKRHHKRRLIQAPFIAKLLPKLKTGGYIHLATDWEEYAQQMLEVLSSFDSLQNTAADYAPTPDYRPETKFEARGKRLGHGVWDLVFKRIG,not soluble
10,MGSDKIHHHHHHMDKATTPPEFERRRARAAQYLRMSTERQIYSIDNQRDAIRNYAEVMGYDIVATYEDPGRSGLSILGRPGLKRLIEDIESRRADFETVVVYDVSRWGRFQNTDESASYEYRCQRAGVRIEFCAELFVNDGSIGSDVLKAIKRSMAAEYSRMLSNRVFAGQSRIVKLGFSGGGPAGYGLRRLLVDGSGNPKAILHRDQRKGLASDRVVLVPGPENEVSTVRWIFNQFVKKGKTAVEIASALNARGLVTEFGRPWTGACVGTILASEKYVGNIVWNRISHRLLQNRLRNPPSAFVRADNVIEPLVTRALFDRAQAIRRARTYLRPDEELLADLTKLLKERGRLSSPIIDAAPGCHSASIYAHRFGSMNAAYQLIGYDGSANYRKLDIRRRLIQIRQQTIENLMSDIEGVGGSALYDPQTKIMRVNDEFSVAIWTAQYRMNVTGFPRWPFWKRGLIGPEVTILIRMESDNQTVRDFLIAPAHEAQSALHMLKADNGVRLDAFLFASLDPVVEMARREPMPANI,not soluble
11,MGSDKIHHHHHHMSKRQFGLIYISSYQARLFIVDLKKLAIIEQLSSVQFVQGGKKFEVYENELPRLTDALIGFKRKIAEYGIDNYKVYGNRQLLDKISARYLADQIKVRTGLEIEWLNGAQIAYYKIIAGMALPQFSELADDEFTYLLSMGSAMLNLTLFKGQHYLSTWNFALGPEEIEEMAAMTRDTPSDPIDIIGDYISRKLVSFKTIEKPTGKARIIIQHVFGRGEQSLRPQEKARVIDLKQFAGVYSDFREAPDQYLMEKYELDTDSLARMKPTIVLINQLVKIIKPHMMTLTQSSAITGLMIQEAARLKYRPDEYSTIVLTATKNIARRYESGGQHINLSNKFALHIFDRLAHAGMVDRRDRQLLEIAARLHDIGNFINFHNHYEHAAYIVGANQIIGLSDRENEMLLSILKHQDITNLNADEREYRHLDPALQVRVAKLAAILRLANSLDASRKQKISKIVVSIKDEKMLIVVTSKRDLTLERWVFEKNVNLAEAVFGMKIAMKQKRGK,not soluble
12,AKIIFIEHNGTRHEVEAKPGLTVMEAARDNGVPGIDADCGGACACSTCHAYVDPAWVDKLPKALPTETDMIDFAYEPNPATSRLTCQIKVTSLLDGLVVHLPEKQI,soluble
13,VHFHPFGNVNFYEMDWSLKGDLWAHDPVIAKEGSRWYVFHTGSGIQIKTSEDGVHWENMGWVFPSLPDWYKQYVPEKDEDHLWAPDICFYNGIYYLYYSVSTFGKNTSVIGLATNQTLDPRDPDYEWKDMGPVIHSTASDNYNAIAPNVVFDQEGQPWLSFGSFWSGIQLIQLDTETMKPAAQAELLTIASRGEEPNAIEAPFIVCRNGYYYLFVSFDFCCRGIESTYKIAVGRSKDITGPYVDKNGVSMMQGGGTILDEGNDRWIGPGHCAVYFSGVSAILVNHAYDALKNGEPTLQIRPLYWDDEGWPYLSV,soluble
14,MSLQAAGNAPAKISMLLTDGAIGQITKPFPEGGPSAKEVWERETGIEIDIVGAPAEDIFKKVMQDVTTGGGTFDIYTGPWNSTGDLVSSGGAVNCSDFVAKYQPDWADPERGTPTPEMEKLLYTYAGDYYSFSLDGDFQTWFYLKGLYEDPRVQDAFLSETGVALKTPDTWEEVDRISKFFTGKDFGNGPMYGNGNLMSPFWGLATFYARFASMDFPNYHFFDEDGNPNLNSDLGIQCAEEHVRSFEWCPPDALTFTWAEAYATMWNLQIPHTAIYTNLVKFGDGYNADGTPKSKATGMIGSHLPVGRRFGDQLNRRSVLYYHITAWISSQSQHPEAVYLFLQWLSSTRTYTWMAGNPGGYFDPMQQANFKEPLVASTYHPYAMETIPQTIARSVPSINFAGQTALDNALDEEIQAAITGQKSAREAMDAAQSKWERIIKRQEGHHHHHH,not soluble
15,RKQAEEKLVASERFLRMLTNQLPGMVGYWDRDLRCRFANDAYKEWFGRSPEQIIGLTVQELMGEELFRLSEPYIRGALQGEPQNFERELVKPNGETGYTWAQYIPDMVNDKAIGFFVLISDVT,not soluble
16,MPTVSLGRFQKEDGINVPDWIDVVRRPSGGRALLHHREITYCLAVPKKINFGKLSVLEFHRLVHSLIRDALVEAGLHAELSSKRRGNTALCFDAPSRYEIVINGVKVVGSAQFRTAESIVEHGSIVLKQDIDL,soluble
17,AVSLDRTRAVFDGSEKSMTLDISNDNKQLPYLAQAWIENENQEKIITGPVIATPPVQRLEPGAKSMVRLSTTPDISKLPQDRESLFYFNLREIPPRSEKANVLQIALQTKIKLFYRPAAIKTRPNEVWQDQLILNKVSGGYRIENPTPYYVTVIGLGGSEKQAEEGEFETVMLSPRSEQTVKSANYNTPYLSYINDYGGRPVLSFICNGSRCSVKKEKHHHHHH,soluble
18,MKSIYITGYMGAGKTTIGKALSKELHMDVVDTDQKIEEKQGKVIRDIFAEEGEMAFREYESEMLCSLPVDNVIITTGGGIVEREENRKWMKENGTVVYLYCDPHVIAERLREDTTRPLFQKKDIDAFVTKFESRRAYYEEAHIHIDTTNKSVKQIMNELKEKINE,not soluble
19,MGSDKIHHHHHHMKVSSKPSLTWEILTSRADRPRQEVFPFNTGRCEYFYSARYALAAALDALKLSPQQSILMPSYNCWVEVEPAVRSGAKIDWYRVKTDFSIDEDDLLARIRPETAAIFVIHYLGFPQRLENIHRICTERGIVLIEDCAHALLSNDGDVPLGLTGDMAIFSIRKTVPIPDGGCLLINNPAFSVNRPRRVRPNLFATYFVVSEMLARGSTTEPKRVNQMAYSCNFAFARLARMGLRGIHKIFQDHGDYLVYPSGNHFNEQVKHWMMSDVSSAILRGTEFQRIKERRRANFLHLLDKLIMNDRITLPILSLPEGVSPLFFPVIVQDRDRVYRQLKDQGLSGHDWWGDFHPAVPWDKYPDAVYLKTNVFGFPVHQDLSRESLGIMLAEFSQCL,not soluble
20,MERYPPIADHGLVGDLQTAALVSSQGVIDWFAAPRFDSPSIFASLLDHDGGGHFLLAPEHPEGTWRQLYYPDTGVVVTRFMSPDGVGEIIDYMPVLPGPTASDRHSLVRIVRSVRGTVRFRLVCRPRFDYLEHHHHHH,not soluble
21,MEALVVVHKVASEGGRRPKTTVSDESGSHSREKGKSFQVKDSPENNYATGKVDSLERSHFSSSYNQERRQSEEQRR,soluble
